From patent US20120093808A1 (SHIONOGI, published 2012)

Key:
[1] = biological target: T1, recombinant full-length PcrV protein (1-294) of Pseudomonas aeruginosa (Pseudomonas aeruginosa, in the biotin-labeled form: PEO-maleimide biotin on the cysteine inserted between histidine tag and start codon); test: surface plasmon resonance analysis, PcrV antigen
T1 construct: also called PcrV antigen; recombinant PcrV; not shown: N-terminal histidine tag encoded by the expression vector (pWE30 [sic] / pQE30)

truncated PcrV (136-233) = biological target: T2, truncated PcrV (136-233) (Pseudomonas aeruginosa); test: Western blotting: purified recombinant truncated PcrV on SDS-PAGE/PVDF, antibody at 1 ug/mL, labeled anti-mouse IgG, ECL [panel Truncated PcrV (136-233]
T2 construct: also called truncated PcrV protein

[2] = biological target: T1, recombinant full-length PcrV protein …; test: SPR, BIAcore T100, antibody captured by anti-mouse antibody on CM5 chip, recombinant PcrV as analyte
[3] = biological target: T1, recombinant full-length PcrV protein …; test: surface plasmon resonance analysis (BIAcore T-100), culture supernatant, recombinant PcrV
[4] = biological target: T1, recombinant full-length PcrV protein …; test: surface plasmon resonance analysis, PcrV antigen; remark: listed apart in the source
[5] = biological target: T1, recombinant full-length PcrV protein …; test: SPR, BIAcore T-100, culture supernatant, recombinant PcrV (FIG. 13)

B1: humanized monoclonal antibody h1F3 (antibody, V domains shown)
VH: QVQLVQSGAEVKKPGASVKVSCKASGYSFTSYWMHWVRQAPGQGLEWMGEINPSNGRTNYNEKFNTRVTMTRDTSTSTVYMELSSLRSEDTAVYYCVLYGNYVVYYTMDYWGQGT
VL: DIQLTQSPSFLSASVGDRVTITCSASTSVSYMEWYQQKPGKAPKLLIYTTSKLASGVPSRFSGSGSGTEFTLTISSLQPEDFATYYCHQWRNYPFTFGQGTKLEIKR
notes: also called humanized antibody; humanized PcrV antibody
Kd [1]: 0.38 nM | koff [1]: 0.00033 s⁻¹ | kon [1]: 870000 M⁻¹ s⁻¹

B2: mouse monoclonal antibody 1F3 (antibody, V domains shown)
VH: QVQLQQPGAELVKPGASVKLSCKASGYSFTSYWMHWVKQRPGQGLEWIGEINPSNGRTNYNEKFNTKATLTVDTSSSTAYMQLSSLTSEDSAVYYCVLYGNYVVYYTMDYWGQGTSVTVSS
VL: QIVLTQSPTIMSASLGEEITLTCSASTSVSYMEWYQQKSGTSPKILIYTTSKLASGVPSRFSGSGSGTFYSLTISSVEAEDAADYYCHQWRNYPFTFGSGTKLEIK
notes: also called m1F3; mouse PcrV antibody
binding result (truncated PcrV (136-233)): binds | Kd [2]: 0.37 nM

B3: mouse-human chimeric 1F3 antibody (antibody, V domains shown)
VH: QVQLQQPGAELVKPGASVKLSCKASGYSFTSYWMHWVKQRPGQGLEWIGEINPSNGRTNYNEKFNTKATLTVDTSSSTAYMQLSSLTSEDSAVYYCVLYGNYVVYYTMDYWGQGTSVTVSS
VL: QIVLTQSPTIMSASLGEEITLTCSASTSVSYMEWYQQKSGTSPKILIYTTSKLASGVPSRFSGSGSGTFYSLTISSVEAEDAADYYCHQWRNYPFTFGSGTKLEIK
notes: Human IgG4Pro (S228P) heavy constant region and human Igkappa constant region; tested as culture supernatant; also called mouse-human chimeric antibody; mouse/human chimeric antibody
Kd [1]: 0.49 nM | koff [1]: 0.00037 s⁻¹ | kon [1]: 740000 M⁻¹ s⁻¹ | koff [3]: 0.00051 s⁻¹ | kon [3]: 2e+06 M⁻¹ s⁻¹ | Kd [4]: 0.27 nM | koff [4]: 0.00023 s⁻¹ | kon [4]: 850000 M⁻¹ s⁻¹ | Kd [5]: 0.26 nM

B4: antibody including the heavy chain of the template humanized antibody and the light chain of the mutant humanized antibody (antibody, V domains shown)
VH: QVQLVQSGAEVKKPGASVKVSCKASGYSFTSYWMHWVRQAPGQGLEWMGEINPSNGRTNYNEKFNTRVTMTRDTSTSTVYMELSSLRSEDTAVYYCARYGNYVVYYTMDYWGQGTTVTVSS
VL: DIQLTQSPTFLSASVGDRVTITCSASTSVSYMEWYQQKPGKAPKILIYTTSKLASGVPSRFSGSGSGTEYTLTISSLQPEDFATYYCHQWRNYPFTFGQGTKLEIK
notes: Human IgG4Pro (S228P) and human Igkappa constant regions; tested as culture supernatant; also called HT/LB
koff [3]: 0.04 s⁻¹ | kon [3]: 62000 M⁻¹ s⁻¹ | Kd [5]: 650 nM
